According to the DeepSol protein solubility set:

Test: soluble on expression in E. coli; label from the status in PepcDB or PDB records
In the case of “MIINNVKLVLENEVVNGSLEMQDGEIRAFAESQSRLPEAMDGEGGWLLPGLIELHTDNLDKFFTPRPKVDWPAHSAMSSHDALMVASGITTVLDAVAIGDVRDGGDRLENLEKMINAIEETQKRGVNRAEHRLHLRCELPHNTTLPLFEKLVQREPVTLVSLMDHSPGQRQFANREKYREYYQGKYSLTDAQMQQYEEEQLALAARWSQPNRESIAAMCRARQIALASHDDATHAHVAESHQLGSVIAEFPTTFEAAEASRKHGMNVLMGAPNIVRGGSHSGNVAASELAQLGLLDILSSDYYPASLLDAAFRVADDQSNRFTLPQAVKLVTKNPAQALNLQDRGVIGEGKRADLVLAHRKGNHIHIDHVWRQGKRVF”, the “soluble on expression in E. coli” value is reported as “not soluble”.
In the case of “MPAVSKGDGMRGLAVFISDIRNCKSKEAEIKRINKELANIRSKFKGDKALDGYSKKKYVCKLLFIFLLGHDIDFGHMEAVNLLSSNRYTEKQIGYLFISVLVNSNSELIRLINNAIKNDLASRNPTFMGLALHCIANVGSREMAEAFAGEIPKILVAGDTMDSVKQSAALCLLRLYRTSPDLVPMGDWTSRVVHLLNDQHLGVVTAATSLITTLAQKNPEEFKTSVSLAVSRLSRIVTSASTDLQDYTYYFVPAPWLSVKLLRLLQCYPPPEDPAVRGRLTECLETILNKAQEPPKSKKVQHSNAKNAVLFEAISLIIHHDSEPNLLVRACNQLGQFLQHRETNLRYLALESMCTLASSEFSHEAVKTHIETVINALKTERDVSVRQRAVDLLYAMCDRSNAQQIVAEMLSYLETADYSIREEIVLKVAILAEKYAVDYTWYVDTILNLIRIAGDYVSEEVWYRVIQIVINRDDVQGYAAKTVFEALQAPACHENLVKVGGYILGEFGNLIAGDPRSSPLIQFNLLHSKFHLCSVPTRALLLSTYIKFVNLFPEVKATIQDVLRSDSQLKNADVELQQRAVEYLRLSTVASTDILATVLEEMPPFPERESSILAKLKKKKGGS”, the “soluble on expression in E. coli” value is reported as “soluble”.
In the case of “MDIISLRKSPQYLEEAIAYFQRKWADENSRMVYDNCFRTCLESESPLPQWYLLINGEGEIIGCAGLATNDFNSRMDLYPWLVALFIEEQYRGHNYGNLLIKAVEEDTRRLGFGNLYLCTTHTGYYEHFNFVYIGDCYHPWGEHTRVYQKEI”, the “soluble on expression in E. coli” value is reported as “soluble”.
In the case of “MKYIVLLGDGMSDEAVKDLDGKTPLQAAKTPHMDVMARRGRIGLAHTVPKGLPPGSDVANLSVFGYDPRTCYTGRSPLEAASMGVQLGPDDVAFRVNLVNLLPTKGTLVMNDYSAGHISTEEGRELIEAIQQQIGDDEFQFYPGVGYRHLMVWRNGKSGMSATPPHDISGKSILDYLPKGEGADKLIYLMNSSQMILNNHPQYRRRLEADKIPANSIWLWGHGKAPRMEPFKEKFGLAGAVISAVDLINGIGIGAGLDVIRVEGATGYLDTNYEGKVQAALEALETHDYVYLHVEAPDEASHSGNLSHKLQAIEDFDARVVGPIMEGIRRFGSFRILCTPDHPTPLRLKTHTGAPVPFIIYDGGESEDDSIAGYDEDSARTSGLVLEEGHRLMELLLERLEHHHHHH”, the “soluble on expression in E. coli” value is reported as “soluble”.
In the case of “MNYVERYIEQFLRATVRNNIKHYLLMLDEKMKNLDDYMRYLITKKEQLSKLIDSLMLTLENKYIDIAEAFQIQCAREINNQEIENIKSELNKVEAYYAQIETQIQQTSTEKIATEKTSYLINYMNAVALEHHHHHH”, the “soluble on expression in E. coli” value is reported as “soluble”.
With “MEYIYASLLLHSAKKEISEDALKNVLTAAGISVDEVRLKAVVAALKEVNIDEVLKNAAAMPVAVAAQPQATQAQPAAEEKKEEKKEEEKKGPSEEEIASGLASLFGLEHHHHHH” the “soluble on expression in E. coli” value was “not soluble”.
With “MGSDKIHHHHHHMNDQKNAAQVGLGLRREMLSEFCESVPEAINFFEVAPENWMTLGGKFGRQFRELTEQHTFYCHGLSLSIGSPEPLDLAFVKNIKTFMDLHQIQIYSEHLSYCSGQGHLYDLMPIPFTDAAVKHVAARVKQVEDILERPLILENVSFYAAPGARMSELEFVNAVLQEADCKLLLDVNNIYVNSINHQYDADTFLQAMPTERIAYLHIAGHYKQAEDLLIDTHGAAINDPVWALLQRCYALHGVKPTLLERDFNVPTTAELLLELNQIHAYQAAAPSSHIQNSAHVVKRIA” the “soluble on expression in E. coli” value was “not soluble”.
For “MGILSGNPQNEPLHYGEVFDIWSYLLAAQGAIASHQVFMNHTGDEDLKKFLEGLIENDMNSEIEELKALLKINGVALPPAPPERPVASIEDIPPGARINDVEIAAAVSTGLAAGLVTCSQVMGKCLREDVGMLFGQFHMKKAQAGVTLLRLSKKKGWVVPPPLHVRNSDQA”, the “soluble on expression in E. coli” value was “not soluble”.
With “MSLAMNKVPGYNIYIGGVFALKNKVAMSGANITHVLSVIRLRPKDDLFAGYQHHRIEVDDLDDENLLEHFPSAIKFIQSGLDAGGGVLVHWPLTASSAMGKSRSATVCIAYLLRRQRNALTPQSALALLRESRPLCEPNPGFMEQLNVYYQMGEGHHHHHH” the “soluble on expression in E. coli” value was “not soluble”.
In the case of “MTFMSEVKFETVEQKASYGIGLQMGQQLAGSGLEGLNVAAIAAGIATALVGEQPAISIDEINQALHAIHMRAEEARQEAAKVAASEGEAFLKDNALRPEVTVLESGLQYEVLVEGNGAIPTSDKSVRVHYHGQLVDGTVFDSSVSRGQPAEFPVTGVIRGWVEALQLMPVGSKWKLYIPHNLAYGERGAGAAIPPFAALVFEVELLDIL”, the “soluble on expression in E. coli” value is reported as “not soluble”.
For “MGSDKIHHHHHHMLKNIPIPSPLSPVEGILIKRKTLERYFSIERLEQQAHQRAKRILREAEEEAKTLRMYAYQEGYEQGMIDALQQVAAYLTDNQTMAWKWMEKIQIYARELFSAAVDHPETLLTVLDEWLRDFDKPEGQLFLTLPVNAKKDHQKLMVLLMENWPGTFNLKYHQEQRFIMSCGDQIAEFSPEQFVETAVGVIKHHLDELPQDCRTISDNAINALIDEWKTKTQAEVIR”, the “soluble on expression in E. coli” value was “not soluble”.
In the case of “MLAQCFQPNSSGIYPQEKLPLILETGVSPDYALIDSGNGKKLERYGAYRIIRPEGQALWKPALSEKHWANVDAIFTGNRDEEGVGRWYFPKKPLDETWPLSWNGLSFLGRFTSFRHVGVFPEQDAHWRFMEKQIVNATRPIKLLNLFGYTGIASLISARAGANVTHVDASKKAIAWAKANQEKAGLSDRSIRWICDDAVKFVERELRRQKTYDMILLDPPAYGRGPHGEIWQLFDHLPAMITNCRKLLSDEPLAVVLTAYSIRASFYALHTLMRDEFINLGGTVESGELILREKTTGRALSTSLFSRWIA”, the “soluble on expression in E. coli” value is reported as “not soluble”.
For “MSLRITTLEELLEALDELFDDGSDLTRRGAQDPWERVFSQPGHPLASDLPDACLVDWTRQGLLPSGDGLTALDLGCGLGRNARWLARQGYAVTGLDLSPYAVGQARERTPGPDIRYLEGDVLRDPIPGGPFDVVYDSGCFHHLPPHRRLSYLHTLGQVLRPGGWFGLCTFAWGRMGSAKSDLELLRQGQLEGGVGYTLDDLREMFGGLDFVTGSLLSELEPASEPVFQMDFLQAALFRREGHHHHHH”, the “soluble on expression in E. coli” value was “soluble”.
With “MSLAGFVVTDVTVATCSILNPFSSCKSSAPWWTQVEKDLYLRTGWTSAAYIRFQRKKEEELLPADKVVIDLKISRLAPEVQDDPKEDKADWEQRPGGIWLKRTAKRHASDSHSAITSVDVLFGADAVDPRPGWEVKDTPILLDSRTESLEARITVRRGDPLKIKKPVPRINENGRFKIMQLADLHLSTGLGHCRDPVPPELIPGQGCEADPRTLDFIERLLDEEQPDLVILSGDQVNGETSRDAQSPLFKSVKLLVDRKIPYAAIFGNHDDEGNLDRHQSMAILEDLPYSLSSAGPEDIDGVGNYIVEVLGRGNTDHSALTLYLLDSHSYSPDERQFRGYDWIKPNQIRWFKTTAQGLKAKHQQYAYMHMNMAFIHIPLPEFAQRGNYFRGNWSEPSTAPGFNSGFKDALEEEGILFVGCGHDHANDYCALSKNEAQKPSLWMCYGGGAGFGGYGGYGGFIRRVRFFDFDMNPGRVVTYKRLEYGNTDARIDEMMIVDGGMVKGPDEGHHHHHH” the “soluble on expression in E. coli” value was “soluble”.
With “MAHHHHHHMLNITRLRNLPEDLFEVDRRQKNGSNQSGKGWPQHKELIFDFTSLVRAYNQNKFEHLTDTFNNNRILISELVLHQLDEKNKVVRSTDAANAQEDDFHPVRLRDLINFLVTNMTESWLEFQRKGTQEDKQFTQLRCLNENVETPLRLISYALYKKRQGKDVLLVTSDSGLKCEAGLNSIDSQSIENIG” the “soluble on expression in E. coli” value was “not soluble”.
With “MKTITLYLDPASLPALNQLMDFTQNNEDKTHPRIFGLSRFKIPDNIITQYQNIHFVELKDNRPTEALFTILDQYPGNIELNIHLNIAHSVQLIRPILAYRFKHLDRVSIQQLNLYDDGSMEYVDLEKEENKDISAEIKQAEKQLSHYLLTGKIKFDNPTIARYVWQSAFPVKYHFLSTDYFEKAEFLQPLKEYLAENYQKMDWTAYQQLTPEQQAFYLTLVGFNDEVKQSLEVQQAKFIFTGTTTWEGNTEVREYYAQQQLNLLNHFTQAEGDLFIGDHYKIYFKGHPRGGEINDIILNNAKNITNIPANISFEVLMMTGLLPDKVGGVASSLYFSLPKEKISHIIFTSNKQVKSKEDALNNPYVKVMRRLGIIDESQVIFWDSLKELGGG” the “soluble on expression in E. coli” value was “soluble”.
With “MGSDKIHHHHHHMTPTIVFDGGYTLWSAGDDAPLAFMTDGLARRLGTPVFKAFVRHPHASFDRRFGVQTLPNLEHESKAGAAGRWFRGLNFTDPRGELAAVADTVAQADLLIMGAGNFITEVGMDVLRGHLPRFCTMALMAQMAGTPYMLFGLSANVLHNPWAVRAAGWLLRGAAAVTFRERMAVENLRACGVALPEHTLLPDAALGAPRAPQGRGDEILRQEQIPSRTAGLRLALAVRDLSWMGSHAAALYERHQTELINLWCARKDNDVLLVPQCCYHADSGITDDRVLGRTLRGRSRFSDKVHVIEGCYHYDDIESLYTQADCAVATRLHGSVFAARMGIPVVGLAYEDKVRGFFGQLQAEDQCLPWDAPATDILALLDSLMLRVQAVRDHMLHRIEQLQQQLAGYIDIAAALAAPAGDHTP” the “soluble on expression in E. coli” value was “not soluble”.
For “MGSDKIHHHHHHMNQDGASPLSETAQPFLQVVGVHKRFTGVHALRGVSLTFERGQIYHLLGENGCGKSTLIKIISGAQPPDQGELVIEGVRHAQLSPLESLAAGIETVYQDLSLLPNMSVAENVALTAELAAHAGKLARTFDRRALARTAARALEAVGLPGSADFQATLIEQLPLATRQLVAIARAIASEAKFVIMDEPTTSLTQKEVDNLIAVLANLRAHGVTVLFVSHKLDECYAIGGEVIVLRDGQKMAQGPIAQFTKARLSELMTGRELSNERYREAGHAQDVVLELRGLTRAGQFSDVSLSLHGGEILGVTGLLDSGRNELARALAGVAPAHAGEVLLDGHAIALRTPSDAKRNRIGYVPEDRLNEGLFLDKPIRDNLITAMISSLRDRFGQIDRARAQALAQQTVKELQIATAGIDKPVQSLSGGNQQRVLIGRWLAIDPRVLILHGPTVGVDVGSRDVIYRIMQRLSQRGIGIILISDDLPELLQNCDRILMMKKGRVASEYRADALDEADLYHALLSEAA”, the “soluble on expression in E. coli” value was “not soluble”.
In the case of “MGSDKIHHHHHHMGKVNYAAIDIGSNAVRLLIKSIDREAVQEKKIKKVMMLRVPLRLGFDVFSIGELSEKKADKLRRLMKAFRQLMKIYDVDDYRACATSAMRDARNGRTIIKKIEKDTGIRIEIIDGQEEARMIYNNHIECMEDRLGNYMYVDVGGGSTEINLLTNGELVWSVSYNIGTVRMLSNAVKEGTWQQMEEELMKVTEGVAAINIIGSGGNINKLFRLADKKDKKLQRLPVSSLQTVYDVLKPLTPEERVEAFSLKQDRADVIVPAAEIFLKIAEVVHAEYIYVPVIGLSDGIIDNLYAKSLEKEMKVE”, the “soluble on expression in E. coli” value is reported as “not soluble”.
With “GYDGVRIGQGYDIHQIRVGPPEDIVADTTADTAANTADPNKQSFKRLTIGGVPVETISVLSHSDGDVIFHALVDALLGGMSCSDLGTLFPDGSPKYKNKNSLSFLRYARLLLYKRNYAIANVDIIVIAEVPKISPIREEIVRNISSALGISESQVSLKGKTHEQLGPVGQKKAIECFANALLIRKQS” the “soluble on expression in E. coli” value was “soluble”.
In the case of “MGSDKIHHHHHHMLAGFAAAKAPEIDPALVDTLVAQIMQQADRHAEQSQKPDGQAIRNDAVRRLQTLEVLKNRALKEGLDKDKDVQNRFKIAEASFYAEEYVRFLERSETVSESALRQFYERQIRMIKLQQVSFATEEEARQAQQLLLKGLSFEGLMKRYPNDEQAFDGFIMAQQLPEPLASQFAAMNRGDVTRDPVKLGERYYLFKLSEVGKNPDAQPFELVRNQLEQGLRQEKARLKIDAILEENGVKP”, the “soluble on expression in E. coli” value is reported as “not soluble”.
